The values that follow come from patent US20100115639A1 (PIERRE FABRE MEDICAMENT, published 2010).

The target of assay [1] is c-Met receptor on A549 cells (human, UniProt P08581 25-1390). The experiment in a line: cell-based or functional assay.
Assay [2] deals with C-Met-Rluc and C-Met-K1100A-YFP co-expressed in CHO stable cell lines (R. reniformis), P08581. The experiment in a line: cell-based or functional assay.
The target in assay [3] is T1, recombinant SEMA domain of c-Met (UniProt P08581 27-515, limits assumed).
T1 construct: domain: SEMA; also called SEMA protein
Briefly: ELISA, SEMA domain coated at 3 µg/ml, hybridoma supernatants. (An ELISA detects its analyte on a solid surface through an enzyme-linked reagent.)
Experimental: The reaction is left to occur for 5 min at room temperature. The reaction is stopped by the addition of 50 μl/well of a 1 M H₂SO₄ solution and read on a plate reader at 450 nm.

For assay [4], the target named is T2, recombinant c-Met-Extra-Cellular Domain (ECD) fused to a human IgG1 Fc domain (R&D Systems, 358MT) (human, UniProt P08581 25-932).
T2 construct: extracellular domain; Bought; bivalent (dimeric) fusion, MW 129 kDa as printed; also called c-Met-Fc; c-Met-Fc-Tag His; not shown: human IgG1 Fc domain
The experiment in a line: displacement of [125I]-HGF from immobilized c-Met-Fc (FlashPlate).

Assay [5] addresses T2, recombinant c-Met-Extra-Cellular Domain …. The experiment in a line: BIAcore X, Fab as analyte on c-Met-Fc-His captured by anti-His antibody, 25°C. In general terms: Surface plasmon resonance follows binding to a sensor surface in real time, without labels.
Experimental: (§1) For the assay, an anti-Tag histidine capture antibody was coated on CM5 sensorchips. The running buffer was HBS-EP, the flow rate was 30 μl/min and the test was performed at 25° C. Soluble c-Met (ECD M1)2-Fc-(HHHHHH)₂ antigen was captured on the sensorchip (around 270 RU), and the antibodies to be tested were used in solution as analytes. The sensorship was regenerated using Glycine, HCl pH 1.5 buffer on both flowcells for half a minute.
Assay [6] shares this target. The experiment in a line: BIAcore X, Fab as analyte on c-Met-Fc-His captured by anti-His antibody, 25°C; column head misprinted.
Experimental: as §1

Changes are numbered by the printed parent chain.

In general, IC50 refers to the concentration that gives 50% inhibition. As a reminder, the Kd is the concentration at which binding is half-saturated. Broadly, the kon is the second-order rate constant of association. The koff is the rate constant with which the complex falls apart.

Turning to “5D5 Mab, generated by Genentech, available at the ATCC (antibody)”, in assay [1], the agonist effect on c-Met phosphorylation (Mab alone, A549 cells) amounted to 58%; the antagonist effect on c-Met phosphorylation in presence of HGF (A549 cells) is 39%; the inhibition of c-Met phosphorylation (phospho c-Met ELISA, A549 cells + HGF 100 ng/ml, antibody 30 µg/ml) came to 42%.

B1: 223C4 murine monoclonal antibody (antibody, mouse IgG1, V domains shown)
VH: EVLLQQSGPELVKPGASVKIPCKASGYTFTDYNMDWVKQSHGMSLEWIGDINPNNGGTIFNQKFKGKATLTVDKSSSTAYMELRSLTSEDTAVYYCARGRYVGYYYAMDYWGQGTSVTVSS
VL: DIQMTQSPASLSVSVGETVTITCRASENIYSNLAWYQQKQGKSPQLLVYAATNLVDGVPSRFSGSGSGTQYSLKINSLQSEDFGSYYCQHFWGPPYTFGGGTKLEIK
notes: also called CNCM I-3786
With B1, in assay [1], the “basal effect on c-Met phosphorylation (antibody alone, A549 cells)” value (“basal effect on c-Met phosphorylation” for short) was under 20% and the “inhibition of c-Met phosphorylation (phospho c-Met ELISA, A549 cells + HGF 100 ng/ml, antibody 30 µg/ml)” value (shortened to “inhibition of c-Met phosphorylation”) came out at 80%. In addition, the inhibition of dimerization (BRET signal, CHO cells) in assay [2] worked out at 55%. Moreover, the binding result in assay [3] was “no binding”. Also, the IC50 in assay [4] was found to be 2.7 nM.

B2: 224G11 murine monoclonal antibody (antibody, mouse IgG1, V domains shown)
VH: EVQLQQSGPELVKPGASVKISCKTSGYIFTAYTMHWVRQSLGESLDWIGGIKPNNGLANYNQKFKGKATLTVDKSSSTAYMDLRSLTSEDSAVYYCARSEITTEFDYWGQGTALTVSS
VL: DIVLTQSPASLAVSLGQRATISCRASESVDSYANSFMHWYQQKPGQPPKLLIYRASNLESGIPARFSGSGSRTDFTLTINPVEADDVATYYCQQSKEDPLTFGSGTKLEMK
notes: also called CNCM I-3731
B2: in assay [1], the “basal effect on c-Met phosphorylation” value is under 20% and the “inhibition of c-Met phosphorylation” value was determined as 54%. Moreover, in assay [2], the inhibition of dimerization (BRET signal, CHO cells) stood at 32%. In addition, the binding result in assay [3] is “no binding”. Moreover, the IC50 in assay [4] was 3 nM.

B3: Fab fragment of mAb 224G11 (papain cleavage) (Fab, V domains shown)
VH: B2 VH
VL: B2 VL
notes: also called 224G11 Fab
As for B3, in assay [5], the Half-Life came to 2.5 h, the Kd is 0.0348 nM and the kon was found to be 2.04e+06 M⁻¹ s⁻¹. Moreover, in assay [6], the off-rate (koff) is 7.79e-05 s⁻¹.

B4: 227H1 murine monoclonal antibody (antibody, mouse IgG1, V domains shown)
VH: EVQLQQSGPELVKPGASMKISCKASGYSFTDYTLNWVKQSHGKTLEWIGLINPYNGGTTYNQKFKGKATLTVDKSSSTAYMELLSLTSEDSAVYYCAREEITKDFDFWGQGTTLTVSS
VL: B2 VL with D1G, A25V, V29I, S31T, A33G, M37I, V87S, K96N, L100F
notes: also called CNCM I-3732
Take B4: in assay [1], the “basal effect on c-Met phosphorylation” value is under 20% and the “inhibition of c-Met phosphorylation” value was determined as 65%. The molecule further returned an inhibition of dimerization (BRET signal, CHO cells) in assay [2] of 52%. Further, in assay [3], the binding result is given as “no binding”. Moreover, the IC50 in assay [4] is 5.8 nM.

B5: 11E1 murine monoclonal antibody (antibody, V domains shown)
VH: QVQLQQSGAELAKPGASVKMSCKASGYTFTSYWMNWVKQRPGQGLEWIGYINPTTGSTDYNQKLKDKATLTADKSSNTAYMQLSSLTSEDSAVYYCAIGGYGSWFAYWGQGTLVTVSA
VL: QIVLTQSPAIMSASPGEKVTLTCSASSSVSSTYLYWYQQKPGSSPKLWIYTTSILASGVPARFSGSGSGTSYSLTISSMETEDAASYFCHQWSSYPFTFGSGTKLDIK
notes: Used as hybridoma supernatant or purified Mab; also called MAb 11E1; CNCM I-3724
B5: in assay [1], the “basal effect on c-Met phosphorylation” value is under 20% and the “inhibition of c-Met phosphorylation” value turned out to be 68%. In assay [2], the inhibition of dimerization (BRET signal, CHO cells) stood at 69%. For the same molecule, the IC50 in assay [4] came out at 20 nM.

B6: Fab fragment of mAb 11E1 (papain cleavage) (Fab, V domains shown)
VH: B5 VH
VL: B5 VL
notes: also called 11E1 Fab
As for B6, in assay [5], the Half-Life was 4.1 h, the Kd was 0.0414 nM and the kon was 1.13e+06 M⁻¹ s⁻¹. In addition, in assay [6], the koff stood at 4.68e-05 s⁻¹.
